The target of assay [1] is T1, huCD40(1-193) (human, UniProt P25942 21-193).
T1 construct: also called soluble human CD40
The assay can be described thus: Octet. The procedure:
(§1) A panel of mesothelin×CD40 bispecific antibodies were generated in the IgG-scFv format (Table 13) and evaluated for binding to soluble forms of human and cynomolgus monkey CD40 and human and cynomolgus monkey mesothelin using the Octet assay (Table 14). Association rate (Kon), disassociation rate (Kdis), and equilibrium binding constant (KD) were calculated. […] These bispecific antibodies were next evaluated for their ability to induce mesothelin-dependent activation of human B cells. CHO cells expressing human mesothelin were seeded into a 96 well plate. The next day varying concentrations of the mesothelin×CD40 IgG-scFv antibodies were added to the wells along with purified human B cells and the plates were incubated for an additional 48 hours. Upregulation of CD86, a marker of CD40-mediated B cell activation, was quantified on B cells by flow cytometry.
In general terms: In BLI a coated tip is dipped into the sample, and binding shifts an interference pattern.

The target in assay [2] is T2, cynoCD40(1-193) (cynomolgus monkey, UniProt P25942 21-193 (human entry)).
T2 construct: also called soluble cynomolgus monkey CD40
T2 chain: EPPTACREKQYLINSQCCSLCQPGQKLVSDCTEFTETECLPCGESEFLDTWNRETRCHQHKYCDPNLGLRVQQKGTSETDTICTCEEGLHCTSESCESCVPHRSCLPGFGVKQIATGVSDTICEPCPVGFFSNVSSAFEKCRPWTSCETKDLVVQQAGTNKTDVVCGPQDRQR
The assay can be described thus: Octet. The procedure: as §1

The target of assay [3] is T3, huMSLN(296-598) (human, UniProt Q13421 296-598).
T3 construct: also called soluble human mesothelin
T3 sequence (Q13421 other isoform, or with tags, fused parts or gaps): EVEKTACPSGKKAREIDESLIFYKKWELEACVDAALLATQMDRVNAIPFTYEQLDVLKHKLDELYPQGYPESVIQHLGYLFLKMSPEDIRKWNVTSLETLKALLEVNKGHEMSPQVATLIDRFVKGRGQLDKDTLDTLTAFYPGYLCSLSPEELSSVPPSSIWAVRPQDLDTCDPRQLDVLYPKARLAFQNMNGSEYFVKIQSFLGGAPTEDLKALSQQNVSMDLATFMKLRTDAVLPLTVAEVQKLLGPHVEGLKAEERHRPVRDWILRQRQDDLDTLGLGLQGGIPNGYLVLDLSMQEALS
Nature of the assay: Octet. As to the method:
as §1

Assay [4] concerns the target T4, cynoMSLN(296-598) (cynomolgus monkey).
T4 chain: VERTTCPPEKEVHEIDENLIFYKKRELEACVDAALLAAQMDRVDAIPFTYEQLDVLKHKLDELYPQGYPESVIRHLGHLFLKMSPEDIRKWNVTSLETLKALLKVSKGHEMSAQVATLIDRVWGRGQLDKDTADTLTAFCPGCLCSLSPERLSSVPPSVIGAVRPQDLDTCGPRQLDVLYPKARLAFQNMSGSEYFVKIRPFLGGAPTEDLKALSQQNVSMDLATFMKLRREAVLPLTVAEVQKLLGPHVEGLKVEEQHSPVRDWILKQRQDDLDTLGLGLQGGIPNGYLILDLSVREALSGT
The assay can be described thus: Octet. As to the method: as §1

For assay [5], the target named is human CD40 (human, UniProt P25942 21-277). Nature of the assay: cell-based or functional assay.
Assay [6] deals with human CD40 (human, UniProt P25942 21-193, limits assumed). Nature of the assay: Octet. As to the method:
(§2) The binding affinity of anti-human CD40 antibodies to human and cynomolgus monkey CD40 was measured by Octet assay (Table 3), quantifying association rate (Kon), disassociation rate (Kdis), and equilibrium binding constant (KD). Cross-reactivity of anti-CD40 antibodies to related TNF receptor superfamily (TNFRSF) members was evaluated by expressing human TNFR1, TNFR2, TNFR10, or TNFR14 on HEK293 cells by transient transfection of expression vectors encoding these genes. Binding of indicated anti-human CD40 antibody to these transfected cells was determined by flow cytometry. […] Cross-reactivity of anti-CD40 antibodies to cynomolgus monkey and mouse CD40 was evaluated by expressing cynomolgus monkey or mouse CD40 on HEK293 cells by transient transfection of expression vectors encoding these genes. Binding of indicated anti-human CD40 antibody to cells overexpressing cynomolgus monkey and mouse CD40 was determined by flow cytometry.

Assay [7] has as its target T5, human CD40 on cells (human, UniProt P25942 21-277). The assay can be described thus: cell-based or functional assay.
The target of assay [8] is T5, human CD40 on cells. The assay can be described thus: cell-based or functional assay. This is another data set of the same source.
Target sequence in this assay (P25942 21-277 limits assumed): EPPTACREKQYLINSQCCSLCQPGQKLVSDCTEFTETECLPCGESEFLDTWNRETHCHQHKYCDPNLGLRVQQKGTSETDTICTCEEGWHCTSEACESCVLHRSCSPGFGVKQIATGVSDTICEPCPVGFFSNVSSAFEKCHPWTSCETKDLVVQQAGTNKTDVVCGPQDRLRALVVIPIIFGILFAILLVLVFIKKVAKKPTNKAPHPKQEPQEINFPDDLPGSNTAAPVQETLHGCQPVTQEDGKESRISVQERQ
Assay [9] concerns the target T6, mouse CD40 on cells (mouse, UniProt P27512 20-289).
T6 construct: whole, on cells; also called mouse CD40 on HEK293 cells; CD40 on mouse B cells
T6 sequence (looked up): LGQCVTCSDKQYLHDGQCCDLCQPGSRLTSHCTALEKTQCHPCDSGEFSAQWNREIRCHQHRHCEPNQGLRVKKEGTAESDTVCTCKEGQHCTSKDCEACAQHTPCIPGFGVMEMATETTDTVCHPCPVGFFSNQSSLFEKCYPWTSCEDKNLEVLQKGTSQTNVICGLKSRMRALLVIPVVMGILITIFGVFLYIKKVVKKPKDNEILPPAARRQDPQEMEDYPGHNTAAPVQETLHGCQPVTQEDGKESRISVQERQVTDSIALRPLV
Nature of the assay: flow cytometry, HEK293 transfectants. On the technique in general: Flow cytometry measures light scatter and fluorescence of single cells or particles in a stream.

Assay [10] concerns the target T7, human TNFR1 (human, UniProt P19438 30-455).
T7 construct: whole, on cells
T7 sequence (looked up): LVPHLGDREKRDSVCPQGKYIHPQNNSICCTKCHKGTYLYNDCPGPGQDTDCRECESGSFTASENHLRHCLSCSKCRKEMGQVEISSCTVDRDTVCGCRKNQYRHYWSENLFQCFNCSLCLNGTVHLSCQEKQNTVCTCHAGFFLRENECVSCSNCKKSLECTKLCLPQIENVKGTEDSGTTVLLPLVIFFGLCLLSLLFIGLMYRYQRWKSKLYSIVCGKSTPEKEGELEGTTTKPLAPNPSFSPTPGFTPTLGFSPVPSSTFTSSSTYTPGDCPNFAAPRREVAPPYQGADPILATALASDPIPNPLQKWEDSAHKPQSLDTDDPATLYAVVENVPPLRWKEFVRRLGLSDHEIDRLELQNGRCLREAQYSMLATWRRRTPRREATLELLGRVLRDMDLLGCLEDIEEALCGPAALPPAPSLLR
Nature of the assay: flow cytometry, HEK293 transfectants. The procedure: as §2

In assay [11] the target is T8, human TNFR2 (human, UniProt P20333 23-461).
T8 construct: whole, on cells
T8 sequence (looked up): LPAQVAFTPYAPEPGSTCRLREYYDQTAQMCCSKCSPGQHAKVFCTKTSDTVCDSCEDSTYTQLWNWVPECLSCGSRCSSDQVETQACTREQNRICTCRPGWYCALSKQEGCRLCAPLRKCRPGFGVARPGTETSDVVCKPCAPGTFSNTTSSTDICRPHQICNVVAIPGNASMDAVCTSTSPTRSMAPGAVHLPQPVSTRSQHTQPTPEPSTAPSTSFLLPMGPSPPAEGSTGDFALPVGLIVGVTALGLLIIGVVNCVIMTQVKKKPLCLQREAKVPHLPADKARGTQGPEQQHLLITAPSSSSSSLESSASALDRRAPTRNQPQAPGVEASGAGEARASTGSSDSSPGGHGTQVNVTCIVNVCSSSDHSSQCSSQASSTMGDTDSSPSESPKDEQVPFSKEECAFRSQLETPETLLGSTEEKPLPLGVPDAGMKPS
Nature of the assay: flow cytometry, HEK293 transfectants. As to the method: as §2

Assay [12] has as its target T9, human TNFR14 (human, UniProt Q92956 39-283).
T9 construct: whole, on cells
T9 sequence (looked up): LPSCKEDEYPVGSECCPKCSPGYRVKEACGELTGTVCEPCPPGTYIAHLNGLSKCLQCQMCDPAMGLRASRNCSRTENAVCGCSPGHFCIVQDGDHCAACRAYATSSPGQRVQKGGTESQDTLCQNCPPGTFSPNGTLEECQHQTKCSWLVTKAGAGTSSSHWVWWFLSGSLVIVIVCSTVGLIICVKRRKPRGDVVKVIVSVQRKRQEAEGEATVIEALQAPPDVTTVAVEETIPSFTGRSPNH
Nature of the assay: flow cytometry, HEK293 transfectants. The procedure:
as §2

Assay [13] addresses T10, cynomolgus monkey CD40 on cells (cynomolgus monkey, UniProt P25942 21-277 (human entry)).
T10 construct: also called cyno CD40 on HEK293 cells; CD40 on cynomolgus monkey B cells
T10 chain: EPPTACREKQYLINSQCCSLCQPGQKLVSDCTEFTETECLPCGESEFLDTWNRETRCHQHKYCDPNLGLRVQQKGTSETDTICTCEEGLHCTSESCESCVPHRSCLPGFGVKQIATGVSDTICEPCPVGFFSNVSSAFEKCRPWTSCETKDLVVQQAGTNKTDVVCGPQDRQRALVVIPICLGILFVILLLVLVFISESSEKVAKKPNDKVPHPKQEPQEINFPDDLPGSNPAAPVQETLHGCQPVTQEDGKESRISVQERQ
Nature of the assay: flow cytometry, HEK293 transfectants vs control cells. The procedure: as §2

Assay [14] addresses T6, mouse CD40 on cells. Described as above. As to the method: as §2
Assay [15] has as its target T7, human TNFR1. The description is as above. The procedure:
as §2

The target of assay [16] is T8, human TNFR2. The assay is described as above. As to the method: as §2
Assay [17] addresses T11, human TNFR10 (human).
T11 construct: whole, on cells; Name as printed is ambiguous (TNFRSF10A-D)
Described as above. The procedure: as §2

Assay [18] concerns the target T9, human TNFR14. Described as above. As to the method: as §2
Assay [19] has as its target T5, human CD40 on cells. Nature of the assay: flow cytometry, labelled CD40L on CD40-293T cells, antibody at 5 ug/ml. The procedure:
(§3) Percent ligand binding inhibition was calculated as [(CD40L binding gMFI in the absence of anti-CD40)−(CD40L binding gMFI in the presence of anti-CD40)]/(CD40L binding gMFI in the absence of anti-CD40). gMFI: geometric mean fluorescent intensity. All anti-CD40 antibodies show minimal effects on the ability of CD40L to bind to the CD40 receptor (Table 7).
Target sequence in this assay (P25942 21-277 limits assumed): as the sequence (P25942 21-277 limits assumed) above

Assay [20] addresses T5, human CD40 on cells. The assay can be described thus: flow cytometry, labelled CD40L on CD40-293T cells, antibody at 10 ug/ml. As to the method: as §3
Target sequence in this assay (P25942 21-277 limits assumed): as the sequence (P25942 21-277 limits assumed) above
The target in assay [21] is T5, human CD40 on cells. The assay can be described thus: flow cytometry, labelled CD40L on CD40-293T cells, antibody at 20 ug/ml. As to the method:
as §3
Target sequence in this assay (P25942 21-277 limits assumed): as the sequence (P25942 21-277 limits assumed) above

The target of assay [22] is T5, human CD40 on cells. The assay can be described thus: flow cytometry, labelled CD40L on CD40-293T cells, antibody at 2.5 ug/ml. The procedure: as §3
Target sequence in this assay (P25942 21-277 limits assumed): as the sequence (P25942 21-277 limits assumed) above

Where two headings read alike, the source gives them in different places.

The Kd is a measure of binding affinity in units of concentration. By koff is commonly meant the first-order rate constant of dissociation. By kon is commonly meant the second-order rate constant of association.

Sequence of human CD40 (human, UniProt P25942 21-193, limits assumed) (P25942 21-193 limits assumed): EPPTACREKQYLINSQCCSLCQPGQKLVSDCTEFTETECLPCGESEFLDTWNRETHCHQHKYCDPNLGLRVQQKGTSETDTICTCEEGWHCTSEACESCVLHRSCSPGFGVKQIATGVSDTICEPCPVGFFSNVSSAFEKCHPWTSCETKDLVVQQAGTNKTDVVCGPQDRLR

B1: 6032-2 (bispecific antibody)
heavy: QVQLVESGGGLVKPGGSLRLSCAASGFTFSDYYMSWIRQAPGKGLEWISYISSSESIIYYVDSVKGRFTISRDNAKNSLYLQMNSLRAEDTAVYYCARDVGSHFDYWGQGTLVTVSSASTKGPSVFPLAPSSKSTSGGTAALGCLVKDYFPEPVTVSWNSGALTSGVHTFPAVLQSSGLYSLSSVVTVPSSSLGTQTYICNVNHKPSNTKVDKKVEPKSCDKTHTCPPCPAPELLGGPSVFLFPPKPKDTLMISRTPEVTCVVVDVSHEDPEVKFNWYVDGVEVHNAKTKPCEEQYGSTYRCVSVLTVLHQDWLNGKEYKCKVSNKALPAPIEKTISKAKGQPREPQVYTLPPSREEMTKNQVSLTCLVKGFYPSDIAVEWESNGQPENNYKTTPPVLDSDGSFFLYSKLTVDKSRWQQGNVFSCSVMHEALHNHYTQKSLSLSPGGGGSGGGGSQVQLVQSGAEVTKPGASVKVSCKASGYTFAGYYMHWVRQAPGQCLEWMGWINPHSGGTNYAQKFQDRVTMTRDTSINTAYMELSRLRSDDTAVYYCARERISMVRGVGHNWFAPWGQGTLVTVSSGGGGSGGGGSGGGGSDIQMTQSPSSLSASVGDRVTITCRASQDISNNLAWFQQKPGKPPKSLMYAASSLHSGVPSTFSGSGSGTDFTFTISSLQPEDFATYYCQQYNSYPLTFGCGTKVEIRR
light: DIQMTQSPSSVSASVGDRVTITCRASQDISRWLAWYQQKPGKAPKLLISAASRLQSGVPSRFSGSGSGTDFTLTISSLQPEDFAIYYCQQAKSFPRTFGQGTKVEIKRTVAAPSVFIFPPSDEQLKSGTASVVCLLNNFYPREAKVQWKVDNALQSGNSQESVTEQDSKDSTYSLSSTLTLSKADYEKHKVYACEVTHQGLSSPVTKSFNRGEC
notes: IgG-scFv: IgG (MSLN) 6F4, scFv (CD40) 29H10
As for B1, the Kd turned out to be 2 nM in assay [1], 1.7 nM in assay [2], 0.4 nM in assay [3] and 5.8 nM in assay [4]. In addition, the koff in [1] was found to be 0.000407 s⁻¹; in assay [2] it was 0.000407 s⁻¹; in [3], 0.000306 s⁻¹; in assay [4], 0.00199 s⁻¹. Further, the kon in [1] came to 204000 M⁻¹ s⁻¹; in assay [2], 238000 M⁻¹ s⁻¹; in assay [3], 692000 M⁻¹ s⁻¹; in assay [4], 345000 M⁻¹ s⁻¹. Besides, the “EC50 (nM), CD86 upregulation on human B cells with huMSLN-CHO cells” value in assay [5] is 0.00935 nM.

B2: 33H9 (antibody, IgG4, V domains shown)
VH: QVQLVESGGGVVQPGRSLRLSCAASGFTFSSHGMHWVRQPPGKGLEWVAVIWYDGSNEYYGDSVKGRFTISRDNSKNTLYLQMNSLRVEDTAVYYCTRGGGHWNYEGHYYGMDVWGQGTTVTVSS
VL: QAVPTQPSSLSASPGASASLTCTLRSGINVGSSRIYWYQQKPGSPPQFLLRYTSDSDKLQGSGVPSRFSGSKDASANAGLLLISGLQSEDEADYYCMIWHSSAVVFGGGTKLTVLG
notes: also called 4897-1
Consider B2, for which binding in assay [6] was characterised by a dissociation constant (Kd) of 0.58 nM. The koff in assay [6] is 0.000238 s⁻¹. For the same molecule, the on-rate (kon) in [6] was 407000 M⁻¹ s⁻¹. Also, the “human B cell proliferation, no crosslinking, EC50” value is greater than 16.7 nM in assay [7] and greater than 13.4 nM in assay [8]. In addition, the “human B cell proliferation, no crosslinking, Max Fold Change” value in assay [7] came to 1.35 fold. The “human B cell proliferation, with protein G crosslinking, EC50” value amounted to 0.344 nM in [7] and 0.19 nM in assay [8]. For the same molecule, in [7], the “human B cell proliferation, with protein G crosslinking, Max Fold Change” value was found to be 23.2 fold. Besides, in assay [8], the “human B cell proliferation, no crosslinking, % Max Activity” value is 2.3%. Moreover, the “human B cell proliferation, with protein G crosslinking, % Max Activity” value in assay [8] came to 88.9%. In addition, the binding result in assay [9], in assay [10], in assay [11] and in assay [12] was “no binding” in each case. The “fold over control (gMFI)” value in assay [13] is 73 fold; in assay [14], 0.9 fold; in assay [15], 1.03 fold; in assay [16], 0.93 fold; in assay [17], 0.89 fold; in [18], 0.88 fold. The “Ligand Binding Inhibition (%)” value in assay [19] is 9%; in assay [20], 3%; in assay [21] it was 1%; in [22], -3%.
